Experimental data published in patent US6410775.
Bridge positions count the residues as written; N and C are the ends. Square brackets hold non-standard residues; d marks the D form. Ends that are not written are not given here. NMeL = CN[C@@H](CC(C)C)C(=O)O; Phg = N[C@H](C(=O)O)c1ccccc1; NMeV = CN[C@H](C(=O)O)C(C)C; Orn = NCCC[C@H](N)C(=O)O; ATU = not defined here; Aib = CC(C)(N)C(=O)O; Sar = CNCC(=O)O

Target: ACA-6501 aPL antibody
Experiment: competitive ELISA I50; antibody not given, ACA-6501 serum on CL/β2-GPI assumed (Ex. 4B)

Row | IC50 [µg/mL] | Binder
1 | 70 | CL[Sar]VLGKLC (not fully specified (bridges); cysteine pairing not given here) [3G3 N-Me amino acids 3: CL-nG-VLGKLC]
2 | 35 | CLGV[Phg]GKLC (not fully specified (bridges); printed as CLGV-pG-GKLC; cysteine pairing not given here) [3G3 conformational scan 21: CLGV-pG-GKLC]
3 | 130 | C[Phg]GVLGKLC (not fully specified (bridges); cysteine pairing not given here) [3G3 conformational scan 18: C-pG-GVLGKLC]
4 | 360 | CLGVLGKAC [3G3 Ala scan 7: …]
5 | 240 | CLGVLGK[NMeL]C (not fully specified (bridges); cysteine pairing not given here) [3G3 N-Me amino acids 8: CLGVLGK-nL-C]
6 | 340 | CLPVLGKLC [3G3 conformational scan 12 (Pro scan): …]
7 | 110 | CLGVL[Aib]KLC (not fully specified (bridges); printed as CLGVL-aiB-KLC; cysteine pairing not given here) [3G3 conformational scan 29: CLGVL-aiB-KLC]
8 | 170 | {Tyr-ATU}-CLGVLGKLC (not fully specified (bridges); printed as Y-ATU-CLGVLGKLC; cysteine pairing not given here; reading uncertain) [3G3 others 2: Y-ATU-…]
9 | 140 | CLGVL[dA]KLC (not fully specified (bridges); cysteine pairing not given here) [3G3 D amino acids 22: CLGVL-dA-KLC]
10 | 450 | AGPCLGVLGKLCG [3G3 truncation 5: … (as printed)]
11 | 46 | XLGVLGKLC (homocysteine (Hc) at position 1; cyclic thioether) [HCTE, LJP 699 (cyclic thioether analog of 3G3, Hc-LGVLGKL-C)]
12 | 230 | CLGVLG[Phg]LC (not fully specified (bridges); printed as CLGVLG-pG-LC; cysteine pairing not given here) [3G3 conformational scan 23: CLGVLG-pG-LC]
13 | 170 | CLGVLG[dK]LC (not fully specified (bridges); cysteine pairing not given here) [3G3 D amino acids 5: CLGVLG-dK-LC]
14 | 80 | CLGVLGK[Phg]C (not fully specified (bridges); printed as CLGVLGK-pG-C; cysteine pairing not given here) [3G3 conformational scan 24: CLGVLGK-pG-C]
15 | 10 | CLGVLGKLC (disulfide 1-9 (inferred)) [LJP 690 …]
16 | 260 | CLGALGKLC [3G3 Ala scan 3: …]
17 | 420 | PCLGVLGKLCPG [3G3 truncation 3: …]
18 | 370 | C[Aib]GVLGKLC (not fully specified (bridges); printed as C-aiB-GVLGKLC; cysteine pairing not given here) [3G3 conformational scan 25 (alpha Me AA): C-aiB-GVLGKLC]
19 | 170 | CLAVLGKLC [3G3 Ala scan 2: …]
20 | 160 | CPGVLGKLC [3G3 conformational scan 11 (Pro scan): …]
21 | 460 | CLGVLGKLCPG [3G3 truncation 4: …]
22 | 40 | CLGVLG[Orn]LC (not fully specified (bridges); cysteine pairing not given here) [3G3 basic amino acid 2: CLGVLG-Or-LC]
23 | 550 | CLGVLGKPC [3G3 conformational scan 17 (Pro scan): …]
24 | 500 | CLGVLGKGC [3G3 Gly scan 5: …]
25 | 180 | CLGV[NMeL]GKLC (not fully specified (bridges); cysteine pairing not given here) [3G3 N-Me amino acids 5: CLGV-nL-GKLC]
26 | 300 | CLGVLGKLC (not fully specified; C-terminal ATU-Y as printed (ATU linker, then Tyr)) [3G3 others 1: …-ATU-Y]
27 | 180 | GPCLGVLGKLCPG [3G3 truncation 2: …]

Row | IC50 [µg/mL] | Binder
28 | 50 | CLG[dV][dL]GKLC (not fully specified (bridges); cysteine pairing not given here) [3G3 D amino acids 10: CLG-dV-dL-GKLC]
29 | 70 | CLG[Phg]LGKLC (not fully specified (bridges); printed as CLG-pG-LGKLC; cysteine pairing not given here) [3G3 conformational scan 20: CLG-pG-LGKLC]
30 | 40 | CLGVLAKLC [3G3 Ala scan 5: … (peptide 925)]
31 | 310 | CGGVLGKLC [3G3 Gly scan 1: …]
32 | 350 | CLGVLPKLC [3G3 conformational scan 15 (Pro scan): …]
33 | 160 | CLGVLGRLC [3G3 basic amino acid 1: …]
34 | 550 | CLGVL[Sar]KLC (not fully specified (bridges); cysteine pairing not given here) [3G3 N-Me amino acids 6: CLGVL-nG-KLC]
35 | 460 | CLGVLG[Aib]LC (not fully specified (bridges); printed as CLGVLG-aiB-LC; cysteine pairing not given here) [3G3 conformational scan 30: CLGVLG-aiB-LC]
36 | 110 | CLGVLGKLC (cyclic thioether in place of the disulfide) [CCTE, LJP 698 (cyclic thioether analog of 3G3, C-LGVLGKL-C)]
37 | 92 | CLGVLGKLX (homocysteine (Hc) at position 9; cyclic thioether) [CHTE, LJP 702 (cyclic thioether analog of 3G3, C-LGVLGKL-Hc)]
38 | 230 | CLGV[dL]GKLC (not fully specified (bridges); cysteine pairing not given here) [3G3 D amino acids 4: CLGV-dL-GKLC]
39 | 120 | [dP]CLGVLGKLC (not fully specified (bridges); cysteine pairing not given here) [3G3 D amino acids 1: dP-…]
40 | 80 | XLGVLGKLX (homocysteine (Hc) at positions 1 and 9; cyclic thioether) [HHTE, LJP 703 (cyclic thioether analog of 3G3, Hc-LGVLGKL-Hc)]
41 | 150 | CLGVLG[dK][dL]C (not fully specified (bridges); cysteine pairing not given here) [3G3 D amino acids 18: CLGVLG-dK-dL-C]
42 | 70 | CL[Phg]VLGKLC (not fully specified (bridges); cysteine pairing not given here) [3G3 conformational scan 19: CL-pG-VLGKLC]
43 | 130 | CVGVLGKLC [3G3 branched aliphatic 2: …]
44 | 180 | CLGPLGKLC [3G3 conformational scan 13 (Pro scan): …]
45 | 140 | CLGVLG[dL][dL]C (not fully specified (bridges); cysteine pairing not given here) [3G3 D amino acids 21: CLGVLG-dL-dL-C]
46 | 110 | CLG[Aib]LGKLC (not fully specified (bridges); printed as CLG-aiB-LGKLC; cysteine pairing not given here) [3G3 conformational scan 27: CLG-aiB-LGKLC]
47 | 140 | CLGVLGK[dL]C (not fully specified (bridges); cysteine pairing not given here) [3G3 D amino acids 6: CLGVLGK-dL-C]
48 | 80 | CL[Aib]VLGKLC (not fully specified (bridges); printed as CL-aiB-VLGKLC; cysteine pairing not given here) [3G3 conformational scan 26: CL-aiB-VLGKLC]
49 | 160 | CLGVLGPLC [3G3 conformational scan 16 (Pro scan): …]
50 | 60 | CIGVLGKLC [3G3 branched aliphatic 1: …]
51 | 200 | CAGVLGKLC [3G3 Ala scan 1: …]
52 | > 470 | CLGVLGK[Aib]C (not fully specified (bridges); printed as CLGVLGK-aiB-C; cysteine pairing not given here) [3G3 conformational scan 31: CLGVLGK-aiB-C]
53 | 500 | CLGVLGKLC (not fully specified; "TGR resin" printed after the C-terminus) [3G3 others 3: … TGR resin]
54 | 220 | CLG[NMeV]LGKLC (not fully specified (bridges); cysteine pairing not given here) [3G3 N-Me amino acids 4: CLG-nV-LGKLC]
